Reference: patent US20220315967A1, “METHODS FOR PRODUCING D-TRYPTOPHAN AND SUBSTITUTED D-TRYPTOPHANS” (priority 2019, published 2022)

How the values were obtained:
[1] = biological target: T1, D-tryptophanyl-S-IvoA-ΔC(E^0)
T1 chain: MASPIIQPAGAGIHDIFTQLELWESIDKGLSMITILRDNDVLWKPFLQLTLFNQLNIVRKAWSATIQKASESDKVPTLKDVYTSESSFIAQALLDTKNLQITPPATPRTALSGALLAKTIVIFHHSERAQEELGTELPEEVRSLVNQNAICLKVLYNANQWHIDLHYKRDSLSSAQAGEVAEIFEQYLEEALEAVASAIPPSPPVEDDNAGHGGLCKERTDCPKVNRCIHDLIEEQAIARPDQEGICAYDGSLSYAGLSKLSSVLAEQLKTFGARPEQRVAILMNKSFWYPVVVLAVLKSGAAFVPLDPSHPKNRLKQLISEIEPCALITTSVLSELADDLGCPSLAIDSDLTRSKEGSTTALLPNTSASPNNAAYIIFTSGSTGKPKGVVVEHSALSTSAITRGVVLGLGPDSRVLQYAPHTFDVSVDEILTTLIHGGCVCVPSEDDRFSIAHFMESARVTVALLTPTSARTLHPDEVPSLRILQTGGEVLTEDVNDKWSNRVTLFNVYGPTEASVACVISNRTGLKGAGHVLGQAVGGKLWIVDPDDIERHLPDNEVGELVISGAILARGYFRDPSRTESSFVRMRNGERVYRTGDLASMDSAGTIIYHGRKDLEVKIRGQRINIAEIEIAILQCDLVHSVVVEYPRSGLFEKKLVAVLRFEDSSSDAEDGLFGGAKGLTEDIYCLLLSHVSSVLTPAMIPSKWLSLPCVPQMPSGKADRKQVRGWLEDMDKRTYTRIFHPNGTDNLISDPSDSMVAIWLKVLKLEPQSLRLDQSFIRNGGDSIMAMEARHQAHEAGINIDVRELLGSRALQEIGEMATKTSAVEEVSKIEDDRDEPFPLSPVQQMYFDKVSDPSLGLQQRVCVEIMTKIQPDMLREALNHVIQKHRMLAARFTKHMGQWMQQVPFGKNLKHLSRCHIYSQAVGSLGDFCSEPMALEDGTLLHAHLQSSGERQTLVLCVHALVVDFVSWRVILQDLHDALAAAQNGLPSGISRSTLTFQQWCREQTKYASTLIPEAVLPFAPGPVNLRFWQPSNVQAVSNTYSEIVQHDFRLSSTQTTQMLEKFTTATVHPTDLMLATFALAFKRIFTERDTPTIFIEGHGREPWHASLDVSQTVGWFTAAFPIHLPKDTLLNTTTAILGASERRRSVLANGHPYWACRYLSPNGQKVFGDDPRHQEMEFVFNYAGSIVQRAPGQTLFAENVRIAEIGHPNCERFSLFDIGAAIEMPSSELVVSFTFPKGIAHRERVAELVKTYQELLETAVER

[2] = biological target: T2, L-tryptophanyl-S-IvoA-ΔC(E^0)
T2 chain: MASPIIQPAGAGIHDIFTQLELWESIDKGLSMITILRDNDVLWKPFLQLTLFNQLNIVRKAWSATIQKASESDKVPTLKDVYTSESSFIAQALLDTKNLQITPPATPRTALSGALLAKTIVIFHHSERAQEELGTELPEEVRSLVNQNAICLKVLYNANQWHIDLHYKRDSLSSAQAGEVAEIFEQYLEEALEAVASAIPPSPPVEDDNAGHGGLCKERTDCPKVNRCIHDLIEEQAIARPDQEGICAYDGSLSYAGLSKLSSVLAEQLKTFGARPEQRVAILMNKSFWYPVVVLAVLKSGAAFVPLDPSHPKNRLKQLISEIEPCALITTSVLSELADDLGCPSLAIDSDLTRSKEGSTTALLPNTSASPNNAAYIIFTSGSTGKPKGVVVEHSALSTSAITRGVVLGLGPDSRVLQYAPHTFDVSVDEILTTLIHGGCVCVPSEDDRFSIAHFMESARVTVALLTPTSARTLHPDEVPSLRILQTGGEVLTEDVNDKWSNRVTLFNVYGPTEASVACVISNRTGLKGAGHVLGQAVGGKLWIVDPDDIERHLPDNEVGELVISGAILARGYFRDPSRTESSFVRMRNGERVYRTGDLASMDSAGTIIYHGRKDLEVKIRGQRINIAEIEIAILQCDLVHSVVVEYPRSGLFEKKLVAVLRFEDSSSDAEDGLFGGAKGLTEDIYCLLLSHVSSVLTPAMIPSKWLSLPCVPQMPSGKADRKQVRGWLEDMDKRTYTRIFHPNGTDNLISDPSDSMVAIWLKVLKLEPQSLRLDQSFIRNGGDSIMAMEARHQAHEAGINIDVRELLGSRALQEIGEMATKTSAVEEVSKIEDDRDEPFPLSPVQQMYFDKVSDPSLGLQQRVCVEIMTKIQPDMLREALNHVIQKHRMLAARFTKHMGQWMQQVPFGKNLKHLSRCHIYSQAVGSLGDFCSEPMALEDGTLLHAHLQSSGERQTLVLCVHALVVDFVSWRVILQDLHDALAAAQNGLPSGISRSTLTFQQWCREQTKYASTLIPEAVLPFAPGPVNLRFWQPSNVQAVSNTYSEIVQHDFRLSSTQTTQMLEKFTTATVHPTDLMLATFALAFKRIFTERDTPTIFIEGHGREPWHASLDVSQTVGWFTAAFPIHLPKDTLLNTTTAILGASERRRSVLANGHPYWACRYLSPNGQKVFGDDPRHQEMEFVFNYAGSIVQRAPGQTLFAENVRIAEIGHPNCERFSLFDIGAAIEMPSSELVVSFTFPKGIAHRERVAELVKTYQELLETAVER

B1: standalone IvoA-C (condensation (C) domain of Aspergillus nidulans single-module NRPS IvoA) (protein)
chain: DLDLSAKLSSPLVCPADVVRSLEVNGVCIERDVEIVYTPSSIQQHMLWRQSQEPWFYRVQGDWTIEKTTTQSEPVDIDRLSHAWNQVVHRHTTLRTVFRYSSEEERFVAIVLHEVKPAISIIRKGIQTSGSLCRDDDLSPPHRMVLREKDNGSVVCELEFSHTIIDAASRSIVVQDLLDAYDGKLAHRPLDFPPFWEYIRLAQSSTPSARKEELHRAGRVVTLPFQPTHVLSKVPEACKKNEITISSFFMTAWSIVLAKHFVAHNQRVDSTSSQAVAFDYVLSDRSANIPGIESAVGPYIRLPTLETHVKEGVSLKNIARGLHAQCTFQSLSQSTQDGSSLELPSKATALQKYSTLVNIRNSGSDSLDLVSDSGEWKWILQGFSDPWDYDLVFAVNVHAGKVTGWTVEYADGVVEHSAADEIAKDLNDVVERMVCEII
With B1 the “IvoA-C catalyzed hydrolysis of the protein-bound thioester; liberated free tryptophan quantified by LC-MS” value [1] was “IvoA-C stereoselectively hydrolyzed D-tryptophanyl-S-IvoA-ΔC(E^0) over L-tryptophanyl-S-IvoA-ΔC(E^0)” and the “IvoA-C catalyzed hydrolysis of the protein-bound thioester; liberated free tryptophan quantified by LC-MS” value [2] was “IvoA-C stereoselectively hydrolyzed D-tryptophanyl-S-IvoA-ΔC(E^0) over L-tryptophanyl-S-IvoA-ΔC(E^0)”.
